Values of other authors, collected in article PMC6934455, “Molecular Dynamics model of peptide-protein conjugation: case study of covalent complex between Sos1 peptide and N-terminal SH3 domain from Grb2” (Scientific Reports, 2019).
pKd: −log10 of the molar value.

Target: Sos1 peptide (Homo sapiens) (UniProt Q07889)

Sequence of Grb2 N-terminal SH3 (P62993 1-58): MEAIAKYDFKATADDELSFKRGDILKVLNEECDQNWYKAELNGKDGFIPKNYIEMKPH

pKd: 5.46
Substance: Grb2 N-terminal SH3 (from UniProt P62993)
